T1: Flag-tagged Tsg101, wild type (UniProt Q61187)
T1 sequence: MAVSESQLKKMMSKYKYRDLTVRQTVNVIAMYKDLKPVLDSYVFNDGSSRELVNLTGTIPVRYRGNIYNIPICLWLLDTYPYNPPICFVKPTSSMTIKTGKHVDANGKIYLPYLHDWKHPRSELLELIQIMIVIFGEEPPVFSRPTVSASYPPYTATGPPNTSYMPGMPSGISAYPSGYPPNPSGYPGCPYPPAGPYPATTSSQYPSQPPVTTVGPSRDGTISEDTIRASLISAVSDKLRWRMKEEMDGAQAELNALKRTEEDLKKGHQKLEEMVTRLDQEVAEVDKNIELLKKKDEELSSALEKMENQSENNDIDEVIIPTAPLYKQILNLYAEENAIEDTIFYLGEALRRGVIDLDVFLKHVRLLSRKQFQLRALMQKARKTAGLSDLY

T2: Flag-tagged Tsg101, wild type, Q61187
T2 chain: T1 sequence

T3: endogenous Tsg101 of HEK-293T cells, Q99816
T3 chain: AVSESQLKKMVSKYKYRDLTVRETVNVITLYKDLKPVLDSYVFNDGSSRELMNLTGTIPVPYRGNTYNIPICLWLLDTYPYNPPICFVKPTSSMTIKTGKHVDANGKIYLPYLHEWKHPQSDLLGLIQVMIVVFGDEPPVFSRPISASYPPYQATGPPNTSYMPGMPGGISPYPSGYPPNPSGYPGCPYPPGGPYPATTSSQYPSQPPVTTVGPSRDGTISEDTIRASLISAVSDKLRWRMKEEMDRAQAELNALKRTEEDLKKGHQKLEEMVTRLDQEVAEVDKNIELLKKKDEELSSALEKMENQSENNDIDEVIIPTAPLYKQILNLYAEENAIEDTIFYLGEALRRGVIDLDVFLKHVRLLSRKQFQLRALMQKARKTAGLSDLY

T4: Flag-tagged Tsg101, wild type (murine) (UniProt Q61187)
T4 sequence (looked up): T1 sequence

B1: HA-tagged human Ta1, wild type (enzyme, not shown: small tags and cut ends)
chain: MPLFFRKRKPSEEARKRLEYQMCLAKEAGADDILDISKCELSEIPFGAFATCKVLQKKVLIVHTNHLTSLLPKSCSLLSLATIKVLDLHDNQLTALPDDLGQLTALQVLNVERNQLMQLPRSIGNLTQLQTLNVKDNKLKELPDTVGELRSLRTLNISGNEIQRLPQMLAHVRTLEMLSLDASAMVYPPREVCGAGTAAILQFLCKESGLEYYPPSQYLLPILEQDGIENSRDSPDGPTDRFSREELEWQNRFSDYEKRKEQKMLEKLEFERRLELGQREHTQLLQQSSSQKDEILQTVKEEQSRLEQGLSEHQRHLDAERQRLQEQLKQTEQNISSRIQKLLQDNQRQKKSSEILKSLENERIRMEQLMSITQEETESLRRRDVASAMQQMLTESCKNRLIQMAYESQRQNLVQQACSSMAEMDERFQQILSWQQMDQNKAISQILQESAMQKAAFEALQVKKDLMHRQIRSQIKLIETELLQLTQLELKRKSLDTESLQEMISEQRWALSSLLQQLLKEKQQREEELREILTELEAKSETRQENYWLIQYQRLLNQKPLSLKLQEEGMERQLVALLEELSAEHYLPIFAHHRLSLDLLSQMSPGDLAKVGVSEAGLQHEILRRVQELLDAARIQPELKPPMGEVVTPTAPQEPPESVRPSAPPAELEVQASECVVCLEREAQMIFLNCGHVCCCQQCCQPLRTCPLCRQDIAQRLRIYHSS
B2: Ta1 ΔPTAP/PSAP (HA-tagged hTa1 with the PTAP motifs deleted) (protein)
chain: MPLFFRKRKPSEEARKRLEYQMCLAKEAGADDILDISKCELSEIPFGAFATCKVLQKKVLIVHTNHLTSLLPKSCSLLSLATIKVLDLHDNQLTALPDDLGQLTALQVLNVERNQLMQLPRSIGNLTQLQTLNVKDNKLKELPDTVGELRSLRTLNISGNEIQRLPQMLAHVRTLEMLSLDASAMVYPPREVCGAGTAAILQFLCKESGLEYYPPSQYLLPILEQDGIENSRDSPDGPTDRFSREELEWQNRFSDYEKRKEQKMLEKLEFERRLELGQREHTQLLQQSSSQKDEILQTVKEEQSRLEQGLSEHQRHLDAERQRLQEQLKQTEQNISSRIQKLLQDNQRQKKSSEILKSLENERIRMEQLMSITQEETESLRRRDVASAMQQMLTESCKNRLIQMAYESQRQNLVQQACSSMAEMDERFQQILSWQQMDQNKAISQILQESAMQKAAFEALQVKKDLMHRQIRSQIKLIETELLQLTQLELKRKSLDTESLQEMISEQRWALSSLLQQLLKEKQQREEELREILTELEAKSETRQENYWLIQYQRLLNQKPLSLKLQEEGMERQLVALLEELSAEHYLPIFAHHRLSLDLLSQMSPGDLAKVGVSEAGLQHEILRRVQELLDAARIQPELKPPMGEVVPAELEVQASECVVCLEREAQMIFLNCGHVCCCQQCCQPLRTCPLCRQDIAQRLRIYHSS
B3: ΔCC-hTa1 (HA-tagged hTa1 with the coiled-coil deleted) (protein)
chain: MPLFFRKRKPSEEARKRLEYQMCLAKEAGADDILDISKCELSEIPFGAFATCKVLQKKVLIVHTNHLTSLLPKSCSLLSLATIKVLDLHDNQLTALPDDLGQLTALQVLNVERNQLMQLPRSIGNLTQLQTLNVKDNKLKELPDTVGELRSLRTLNISGNEIQRLPQMLAHVRTLEMLSLDASAMVYPPREVCGAGTAAILQFLCKESGLEYYPPSQYLLPILEQDGIENSRDSPDGPTDRFSREELEWQNRFSDYEKRKEQKMLEKLEFERRLELGQREHTQLLQQSSSQKDEILQTVKEEQSRLEQGLSEHQRHLDAERQRLQEQLKQTEQNISSRIQKLLQDNQRQKKSSEILKSLENERIRMEQLMSITQEETESLRRRDVASAMQQMLTESCKNRLIQMAYESQRQNLVQQACSSMAEMDERFQQILSWQQMDQNKAISQILQESAMQKAAFEALQVKKDLMHRQIRSQIKLEELSAEHYLPIFAHHRLSLDLLSQMSPGDLAKVGVSEAGLQHEILRRVQELLDAARIQPELKPPMGEVVTPTAPQEPPESVRPSAPPAELEVQASECVVCLEREAQMIFLNCGHVCCCQQCCQPLRTCPLCRQDIAQRLRIYHSS

Legend:
[1] = molecular target: T1, Flag-tagged Tsg101, wild type
[2] = molecular target: T2, Flag-tagged Tsg101, wild type, Q61187
[3] = molecular target: T3, endogenous Tsg101 of HEK-293T cells, …
[4] = molecular target: T4, Flag-tagged Tsg101, wild type (murine); test: cell-based or functional assay

Molecule	in vitro ubiquitylation of immunoprecipitated Tsg101 (125I-ubiquitin) [1]	HIV-1 infectivity, single-cycle infection assay [3]	also measured
C675A-hTa1 (HA-tagged)	only background ubiquitylation was observed with two RING mutants of hTa1		
H695A-Ta1 (HA-tagged)	only background ubiquitylation was observed with two RING mutants of hTa1		
B1		overexpression of hTa1 reduces infectivity by approximately 40%	HIV-1 infectivity, single-cycle infection assay [2]: when combined with an ectopic Tsg101, hTa1 exerted a significantly greater inhibitory effect; in vitro ubiquitylation of immunoprecipitated Tsg101 (125I-ubiquitin) [2]: Substantial Tsg101 ubiquitylation was observed in complexes pre-incubated with WT-hTa1; decrease in GFP-Gag secretion into virus-like particles (VLPs), HEK-293T cells [4]: > 90%
B2		mediated a relatively mild effect on viral infectivity	
B3		RING or CC mutants of hTa1 potently inhibited HIV-1 infectivity even in the absence of an ectopic Tsg101	

— US20070077628A1
